Data: patent US20260209362A1 (VIB VZW, published 2026)
Changes are numbered by the printed parent chain.

T1: biotinylated recombinant mouse IL-12Rβ2 (mouse, UniProt P97378 24-637, random biotinylated)
T1 construct: Recombinant protein produced in-house, biotinylated; also called mIL-12RB2; mouse IL-12RB2
T1 sequence: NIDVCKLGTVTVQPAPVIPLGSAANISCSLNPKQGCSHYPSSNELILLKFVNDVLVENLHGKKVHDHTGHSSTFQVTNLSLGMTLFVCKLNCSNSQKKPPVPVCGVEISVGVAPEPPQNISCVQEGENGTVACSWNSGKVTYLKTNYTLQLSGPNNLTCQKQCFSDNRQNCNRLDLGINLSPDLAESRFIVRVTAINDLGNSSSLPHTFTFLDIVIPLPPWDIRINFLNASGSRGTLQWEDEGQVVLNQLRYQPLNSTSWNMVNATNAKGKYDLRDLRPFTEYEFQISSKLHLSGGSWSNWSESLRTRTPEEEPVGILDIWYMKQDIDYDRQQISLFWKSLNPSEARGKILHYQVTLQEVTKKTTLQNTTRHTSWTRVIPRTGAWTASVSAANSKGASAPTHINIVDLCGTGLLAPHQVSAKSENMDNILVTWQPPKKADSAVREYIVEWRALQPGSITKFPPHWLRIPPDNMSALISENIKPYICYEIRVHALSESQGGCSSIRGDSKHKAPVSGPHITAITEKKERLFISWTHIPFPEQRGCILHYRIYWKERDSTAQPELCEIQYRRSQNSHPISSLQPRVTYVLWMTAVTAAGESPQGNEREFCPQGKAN

T2: biotinylated recombinant human IL-12Rβ2 (human, UniProt Q99665 24-622, random biotinylated)
T2 construct: Recombinant protein produced in-house, biotinylated; also called hIL-12RB2; human IL-12RB2
T2 sequence: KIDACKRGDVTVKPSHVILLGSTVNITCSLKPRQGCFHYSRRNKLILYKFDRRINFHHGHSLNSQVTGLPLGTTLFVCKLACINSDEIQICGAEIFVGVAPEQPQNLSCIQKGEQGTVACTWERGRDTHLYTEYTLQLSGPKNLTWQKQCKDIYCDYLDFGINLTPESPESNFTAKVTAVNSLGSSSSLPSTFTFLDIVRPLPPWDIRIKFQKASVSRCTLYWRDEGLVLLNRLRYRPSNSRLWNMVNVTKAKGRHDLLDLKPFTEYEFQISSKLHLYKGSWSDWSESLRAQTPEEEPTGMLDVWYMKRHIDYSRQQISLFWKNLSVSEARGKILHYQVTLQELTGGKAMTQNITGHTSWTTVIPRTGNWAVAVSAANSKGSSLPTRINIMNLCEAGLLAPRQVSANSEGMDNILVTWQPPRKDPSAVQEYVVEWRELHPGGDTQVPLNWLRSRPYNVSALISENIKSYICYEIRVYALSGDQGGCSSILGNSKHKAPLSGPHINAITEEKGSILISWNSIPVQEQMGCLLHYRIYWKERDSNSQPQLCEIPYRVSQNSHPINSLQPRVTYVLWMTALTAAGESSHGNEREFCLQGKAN

T3: mouse IL-12Rβ2 expressed on cells (mouse, UniProt P97378 24-874)
T3 construct: HEK293T cells, stably transduced (cDNA NM_008354); also called mIL-12RB2
T3 sequence: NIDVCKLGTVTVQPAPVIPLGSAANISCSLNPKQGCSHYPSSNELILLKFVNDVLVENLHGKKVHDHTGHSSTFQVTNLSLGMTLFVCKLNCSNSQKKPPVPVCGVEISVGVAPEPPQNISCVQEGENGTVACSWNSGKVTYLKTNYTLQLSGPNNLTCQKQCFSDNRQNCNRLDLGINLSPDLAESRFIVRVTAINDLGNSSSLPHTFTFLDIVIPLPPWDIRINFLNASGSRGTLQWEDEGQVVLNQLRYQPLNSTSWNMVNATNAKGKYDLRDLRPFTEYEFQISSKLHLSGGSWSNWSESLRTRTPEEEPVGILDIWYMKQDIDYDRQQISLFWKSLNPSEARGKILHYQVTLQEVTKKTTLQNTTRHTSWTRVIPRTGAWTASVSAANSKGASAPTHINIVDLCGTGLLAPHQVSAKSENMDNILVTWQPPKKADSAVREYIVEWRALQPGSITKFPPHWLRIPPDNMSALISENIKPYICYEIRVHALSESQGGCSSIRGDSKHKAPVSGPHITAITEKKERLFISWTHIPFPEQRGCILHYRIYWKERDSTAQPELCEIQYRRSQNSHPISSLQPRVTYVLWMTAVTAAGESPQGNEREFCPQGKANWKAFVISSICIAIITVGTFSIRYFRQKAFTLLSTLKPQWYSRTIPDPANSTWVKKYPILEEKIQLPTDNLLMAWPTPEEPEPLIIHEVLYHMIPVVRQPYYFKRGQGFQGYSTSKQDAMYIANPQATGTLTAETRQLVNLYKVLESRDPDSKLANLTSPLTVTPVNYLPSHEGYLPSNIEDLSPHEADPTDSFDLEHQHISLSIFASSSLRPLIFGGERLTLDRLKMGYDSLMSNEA

B1: anti-IL-12Rβ2 VHH clone 20474 (VHH, not shown: small tags and cut ends)
VHH: QVQLQESGGGLVQAGGSLRLSCAASGFTFDDYTIGWFRQAPGKEREFVAALSWSAGSTFFTDSVKDRFSISRDNAKNTVLLQMNSLKPEDTAVYYCAAKNPPHRWSDITKSLQYAYWGQGTQVTVSS
notes: tested as periplasmic extract; also called 2CAM16
B2: anti-IL-12Rβ2 VHH clone 20471 (VHH, not shown: small tags and cut ends)
VHH: QVQLQESGGGLVQAGGSLRLSCAASGRTFVTYAMGWFRQAPGKEREFVAAISWSGGRLYYADSAKGRFTISRDNAKNTVYLQMNSLKPEDTAVYYCAADPQDYTGRDYQRRRYDYWGQGTQVTVSS
notes: tested as periplasmic extract; also called 2CAM11
B3: anti-IL-12Rβ2 VHH clone 20532 (VHH, not shown: small tags and cut ends)
VHH: B2 VHH with A64V
notes: tested as periplasmic extract; also called 2CAMS19
B4: anti-IL-12Rβ2 VHH clone 20515 (VHH, not shown: small tags and cut ends)
VHH: QVQLQESGGGLVQAGGSLRLSCAASGRTFSTYAMGWFRQAPGKEREFVAAISWSGGRTYYADSVKGRFAISRDNAKNTAYLQMNSLKPEDTAVYYCAADPSDYMGSYYGARRYDYWGQGTQVTVSS
notes: tested as periplasmic extract; also called 3CAM79
B5: anti-IL-12Rβ2 VHH clone 20553 (VHH, not shown: small tags and cut ends)
VHH: B4 VHH with A14P, A69T, N84S, K87I, S101A, M104T, G109Y, A110Q, R112S
notes: tested as periplasmic extract; also called 3CAMS73
B6: anti-IL-12Rβ2 VHH clone 20506 (VHH, not shown: small tags and cut ends)
VHH: QVQLQESGGGLVQVGGSLRLSCAPSGRTFSTYAMGWFRQALGKEREVVATISWSGGRIYYTDSVKGRFTISRDNAKNTAYLQMNSLRPDDADVYYCATRGTDYGAWEYWGQGTQVTVSS
notes: tested as periplasmic extract; also called 3CAM6
B7: anti-IL-12Rβ2 VHH clone 20476 (VHH, not shown: small tags and cut ends)
VHH: QVQLQESGGGSVQAGGSLRLSCAVFGLSFKDYSMSWFRQAPGKEREFVAGISSGGSWIGDITSYADSVKGRFTISRDNAKNMIYLQMNSLKPDDTGVYYCAAASYGTRYYVGSTANEYTTWGQGTQVTVSS
notes: tested as periplasmic extract; also called 2CAM20
B8: anti-IL-12Rβ2 VHH clone 20533 (VHH, not shown: small tags and cut ends)
VHH: QVQLQESGGGLVQAGGSLTLSCTASGRTFSSYTTGWFRQAPGKEREFVAGISSGGSWIGDITSYADSVKGRFTISRDNAKNMIYLQMNSLKPDDTGVYYCAAASYGTRYYVGSTANEYTTWGQGTQVTVSS
notes: tested as periplasmic extract; also called 2CAMS26
B9: anti-IL-12Rβ2 VHH clone 20479 (VHH, not shown: small tags and cut ends)
VHH: QVQLQESGGGLVQTGGSLRLSCAASGRTFSNSVMGWFRQAPGKEREFVAALMWSAGSEFYTDSVKGRFSISGDGAKNTVYLQMNSLKAEDTAVYYCAAKNPPHRWSDIGKSPHYEYWGQGTQVTVSS
notes: tested as periplasmic extract; also called 2CAM33
B10: anti-IL-12Rβ2 VHH clone 20483 (VHH, not shown: small tags and cut ends)
VHH: B9 VHH with T14A, M34I, M52S, T61V, V64F, G72R, G74N, A88P, H113Q, E115A
notes: tested as periplasmic extract; also called 2CAM41
B11: anti-IL-12Rβ2 VHH clone 20484 (VHH, not shown: small tags and cut ends)
VHH: B9 VHH with T14P
notes: tested as periplasmic extract; also called 2CAM42
B12: anti-IL-12Rβ2 VHH clone 20496 (VHH, not shown: small tags and cut ends)
VHH: B9 VHH with T14A, F29L
notes: tested as periplasmic extract; also called 2CAM71
B13: anti-IL-12Rβ2 VHH clone 20467 (VHH, not shown: small tags and cut ends)
VHH: QVQLQESGGGLVQAGGSLRLSCAPSGRTFSTLAMAWFRQAPGKEREVVATISWSGGRTYYADSVKGRFTISRDNAKNTAYLQMNSLRPDDTAVYYCAARGSDYGSYDYWGQGTQVTVSS
notes: tested as periplasmic extract; also called 2CAM3
B14: anti-IL-12Rβ2 VHH clone 20477 (VHH, not shown: small tags and cut ends)
VHH: B6 VHH with V14A, A91T, D92A, T98A
notes: tested as periplasmic extract; also called 2CAM27
B15: anti-IL-12Rβ2 VHH clone 20486 (VHH, not shown: small tags and cut ends)
VHH: B13 VHH with Y80F, G100E
notes: tested as periplasmic extract; also called 2CAM46
B16: anti-IL-12Rβ2 VHH clone 20512 (VHH, not shown: small tags and cut ends)
VHH: B13 VHH with A23T, A35G, D62S, G66S, S101T, S105A
notes: tested as periplasmic extract; also called 3CAM57
B17: anti-IL-12Rβ2 VHH clone 20555 (VHH, not shown: small tags and cut ends)
VHH: B13 VHH with A35G, D73N, S85N, G100E, S101T, S105A
notes: tested as periplasmic extract; also called 3CAMS81
B18: anti-IL-12Rβ2 VHH clone 20489 (VHH, not shown: small tags and cut ends)
VHH: B13 VHH with A14P, S17P, Y80F, G100E
notes: tested as periplasmic extract; also called 2CAM50
B19: anti-IL-12Rβ2 VHH clone 20468 (VHH, not shown: small tags and cut ends)
VHH: QVQLQESGGGLVQAGGSLRLSCVASGRTFSSYGMGWFRQAPGKEREFVTGISSAGSWIGDITSYADSVKGRFTISRDNAKNILYLQMNSLKPEDTAVYYCAAAYHGSRYYVGSTANEYTTWGQGTQVTVSS
notes: tested as periplasmic extract; also called 2CAM6
B20: anti-IL-12Rβ2 VHH clone 20530 (VHH, not shown: small tags and cut ends)
VHH: B19 VHH with G16D, V23A, S31N, G33N, F37L
notes: tested as periplasmic extract; also called 2CAMS7
B21: anti-IL-12Rβ2 VHH clone 20493 (VHH, not shown: small tags and cut ends)
VHH: B19 VHH with G15E
notes: tested as periplasmic extract; also called 2CAM62
B22: anti-IL-12Rβ2 VHH clone 20473 (VHH, not shown: small tags and cut ends)
VHH: QVQLQESGGGLVQAGDSLRLSCAASGRTFSSYTMGWFRQAPGKEREFVARISQDGGSTYYADSMKGRFTVARDNAKNTVYLQMNSLKPEDTAVYYCAADMIKWGLRVGVDSFKYWGQGTQVTVSS
notes: tested as periplasmic extract; also called 2CAM14
B23: anti-IL-12Rβ2 VHH clone 3CRH83 (VHH, not shown: small tags and cut ends)
VHH: QVQLQESGGGLVQAGGSLKLSCAASGNTFSINAMAWYRQAPGQELELVAAISDVGNTIYADSMKGRFTISRGNADNTVYLQMNSLKPEDTATYYCNAGTFYTSPGDSYYRGYDFWGQGTQVTVSS
notes: tested as periplasmic extract

target: T1, biotinylated recombinant mouse IL-12Rβ2; test: ELISA, periplasmic extract on biotinylated mIL-12Rβ2, signal over control wells

Row | Binder | ELISA binding mIL-12RB2/control [ratio]
1 | B1 | 6.43
2 | B2 | 5.71
3 | B3 | 3.81
4 | B4 | 12
5 | B5 | 15.2
6 | B6 | 19.9
7 | B7 | 7.26
8 | B8 | 3.96
9 | B9 | 9.41
10 | B10 | 4.68
11 | B11 | 4.86
12 | B12 | 19.5
13 | B13 | 14.2
14 | B14 | 20.9
15 | B15 | 6.85
16 | B16 | 47.4
17 | B17 | 9.41
18 | B18 | 7.88
19 | B19 | 9.24
20 | B20 | 3.8
21 | B21 | 14.5
22 | B22 | 36.3

target: T2, biotinylated recombinant human IL-12Rβ2; test: ELISA, periplasmic extract on biotinylated hIL-12Rβ2, signal over control wells

Row | Binder | ELISA binding hIL-12RB2/control [ratio]
23 | B1 | 1.01
24 | B2 | 0.991
25 | B3 | 0.812
26 | B4 | 1.31
27 | B5 | 0.99
28 | B6 | 0.97
29 | B7 | 0.956
30 | B8 | 0.994
31 | B9 | 1.07
32 | B10 | 1.01
33 | B11 | 1.01
34 | B12 | 1.01
35 | B13 | 1.04
36 | B14 | 1.02
37 | B15 | 0.973
38 | B16 | 1.31
39 | B17 | 1.06
40 | B18 | 0.995
41 | B19 | 0.955
42 | B20 | 0.847
43 | B21 | 1.05
44 | B22 | 0.971

target: T3, mouse IL-12Rβ2 expressed on cells; test: flow cytometry, P.E. VHH on HEK293T cells stably expressing mIL-12RB2

Row | Binder | % cells bound [%] | dMFI
45 | B23 | 3.47 | 21
